Data published in the NTF2 design screens of Basanta et al. (2020).

Assay: protease stability score; higher = more stable; yeast display proteolysis, trypsin and chymotrypsin;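 also: relative to predicted unfolded state with 0 unfolded-like and 1 meaning tenfold more protease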
Work on “DEEEELSTEVMEHVLELVLTGDEERLWKLFDPHVRLDIDGKHIIGRELVSKINKDRRRELRIHHVELKRFETQGEKVHSDIRVDGWIDGRRIDTDAHVIVVVVDGRLKSLRIIHH” yielded a protease stability score of 1.18.
“DEEDEDIHRLFHELVEALLTGDERTLLRLIDPHARLIIGDKHFHGRELIVKIIYEMLRELRVHSINMHHIDVIGEKVVLDVHIHVEQGDKHRIIRVNIISKKIDGRWLIKSIKVH” showed a protease stability score of 1.16.
For “DESHRESKLANELLKLALHTGDEDLLRELLDPRMRLEIGDKEFIGRDIMVQAMHEFYRELGVKHTDLKIKRVEIQGNKVINEGILWFHVGDKEHWVSTEFQSVKVNGRWLLQVFSIK”, the protease stability score was 1.35.
Work on “TEEEEAKHLAQRIIEEDLRTGDWSRELRQIDPDVKTRVGDKTFHGMSALHYLLKQIDHPKSFTTHHIEVQGDKIKIDGELEGNINGVRTKIHTIFIVRKVNGRWLVETIIFE” yielded a protease stability score of 1.53.
Sequence “DEEEKRWRHMTHLFWHIEKTGNEDRLSKLADPDVRLNINGVHAHGREEVISVLREFQERYKNLTIHIKDIKVFDGVVFIDGEDHFDGVTVKSLVIIFIVNGRIKEIEHRRE” has a protease stability score of 1.62.
In the case of “DDWEEVLKDFLKKYFEALHTGNEELFLLMLDPHVKFDWNGQKMVGREKEIETLRREIKSAGVTRIERELEIKDTRLVDGRLRIDLSIHLNFNGRKFEIDVELHLNKINGRWEIESIKYR”, the protease stability score is reported as 1.15.
Sequence “DEEEKIIEHVLRLLAEALSTGDEDTLDKLVDPNARVMIDGVDIHGMESMTEWLKHLRIERVHVELRDYREFNGKIHVDGVLHVDRRIGDKREHVSSKTTFIFTKVDGRWKVESIKIK” has a protease stability score of 2.42.
In the case of “DEEEELTRLALEWLLKVSKTGDERLFREEFDPNVKLDINGRDFHGREEAVRVWLKFVHDAGFKHIEIERVLSFDGRLHLHGVEHIGDKEVETHILTEKFDGKWVMRSIKIN”, the protease stability score is reported as 0.301.
With “SEDHEMAKRIVKQFMEEIFTGDWRDFEELLDPDVRIIIGDKELHGREQFELELRHMRRSIDEMHFTDAKVVGDKMIFDTRMKITIHVNGKELRFTTKSTFFILKVDGVWRIRQITVL” the protease stability score was 2.13.
“SEEEEESRFMFELIEHFLKTGNWEMISKLADPNMKTVINGKTYHGREMLIHEFEKLGADHITIHDYKDIDGQVIIHTRIHVGDKTYDVVIISEKVDGKWHLKEIHIR” gave a protease stability score of 1.99.
For “TEDDELEKWATQLVKEVLETGDERLLENLADPNVRVEIGEKDSHGREEMLKDWKHMGIDHIHFEHSEFVGDFIDIHLVIHVNGKDLKQRIIILKIDGQWFLHSVHVE”, the protease stability score was 1.75.
Sequence “SDEDEDARRVMELLLELFETGNWRELSKLADPHVRMEIDGQDFHGRELFEHFVRELIEKFKGAKLELRVHTLDLINGVMYSDIHIHLNVNGRKLDIRSHFRILKIDGRWLTRSFHFK” has a protease stability score of 1.25.
Work on “DEEQKEALHFLENLVRSWITGDEETLKRLFDPHYRVHAENRELHGWEDVIHTAVRESEEIRLHHVKIEHLEFVDGQIFIHLNFDIDINGRREHVHTHVILLKINGRWILTKIEFH” yielded a protease stability score of 1.38.
For “DREEEDYRRAWEHLHKDWKTGNEEHMERNADPNVRVEINGVERVGRELFVELMRHLVRHIRIEHVHVERSDIVNGVIILDMIVTGRIGDKSEIERVEVHTLKIDGRWLLTEVRFK”, the protease stability score was 0.663.
For “TEEEEKVMEIIEIILHVLKTGDEHLLENLIDPNARSEYGDKELHGREQILRFAWWVSHHIRLKHLHIDSMRVFNGRIEIHGHNIGEINGRESEIHLSLIMIKVDGQWKIHSMRFE”, the protease stability score was 1.44.
Sequence “DEDKHLSDYAMELELHAIKTGDEDLWRELIDPNARLIVGDKTFHGWEHLVTFMVSLGVKHVKLKDLKIQGDKMHSKLEIEFDGRTRTYHVVSLKVDGRWVIESVEVR” has a protease stability score of 1.06.
With “DEEEKEMKEALHEQKRSHETGDERVLEELIDPNVRLDINGREHHGREEAIRLWHELGIDHFDIRDFRVVNGRAHIDGHMVINGQRVDVTLIVHKINGRWRQHHIVVR” the protease stability score was 0.04.
In the case of “EEIIDLMERLAYLWHHWLTTGNEEMLSKFLDPHARIVIGDKIYHGREKIHEELRRHLERFDHIEFRLRHTEVQGNKIHNHGELKLRIGNYTVHYETRFELQIYDGKIHEFQVKID”, the protease stability score is reported as 1.73.
Work on “DEATKDAERIIEMFIRAIETGDEKVFKRLLDPNVRLVVDGKEFHGREKFIEWLRRIDVTHQVHFRLHDSDMQGDKLHLDSSEIHDVKYNGVRFVDHYRVHLQIHKFDGRWHLENIIIR” yielded a protease stability score of 1.51.
“DEDEEDIRKAVKDFSENFQTGDEDRFKELADPNDRMHVNGREVHGRENIVKSLREEWKRLGVDHIHFEVRRITVQGEKIIVFSFLRIDNENERHHEDVLIIMRKVDGRWMIRTIRVR” gave a protease stability score of 1.45.
“SEVNKHVEEISKLMVKFLLTGNEDLHKSLADPNYYSDVNGRHVIGRHHVEELWHLFLNEIRIDNIHIEDMKIQGEKAHIQGRIIGTVNGKHDELHATMIVVVIDGRIHSLKVEWR” gave a protease stability score of 1.
Work on “DEREELSKHITERFIRSVQTGDERVLKELIDPHARVIVDGRRFIGRHVWVKILKDLGIDHLEIEHVDLIGDKARIDSRVDVDGQEHNVKIHLEVINGRIHWIEERIK” yielded a protease stability score of 1.04.
Sequence “SEEEHDVERSIKHFLHILETGDWKELYEQMDPNVRIEIDGKFIIGREASVHHFNRYDHHRSRIEIKHVDVYGDKLNVHGHIHEHFSVNGKDITRSMRVILHARKVDGQWIHTEVRYK” has a protease stability score of 1.32.
For “REEDKRAREDVEEWLRWFLTGDEEHLIKYADPNVRVDYGDKDIHGRNEATRIWREFLKHIRIHHVEVSHIKYVGEKVIVDVRLDGEINGRRVITHVEMEIIVVNGVLKSVHINSR”, the protease stability score was 1.21.
With “DERDEMSRHLVRLWIRLYRTGDWKELYDNLDPNARLIIGDKEYHGREEVVEIFLELAKRFKNVKVEFKEIHFQGDKMTLREEVRQGDWRVEVIIKVEFIDGKLHHVQIIFG” the protease stability score was 2.75.
For “DEDEHVLEHIVRLLIRIHLTGNFDRLRELVDPHAQIIIGDKEYHGWHMLEKWLERMGIDHIHIRHNEIRYYGEFAVLHLDTEVSIDGQSLHQIVHLDVDKVDGKWRVKNIRTDHR”, the protease stability score was 1.34.
Sequence “SEIDREAEELVHLLAEFVETGNEERWLELLDPHVRLDFDGVISHGREHYIEFWRRLKENLGIDKVSFRVRRRKTQGEKAHSDMETDINGQKYHMEVLVVVINGVVKHSEFHYN” has a protease stability score of 1.07.
Work on “SEDEEHARKLVEELLHIMITGDFHRIRELADPHARIVVGDKVFHGREMMFRFSRELRVHDHRLRHEEYINGVVHIEGHVDGEINGRRHRTEVRIHIVVIDGRVKTMEIRWD” yielded a protease stability score of 1.35.
With “SELEEHATKMLQMVLEWWFTGDEEIFKHLADPHVRVESLINGVEIRRVGMEKLHEWLKHVLIHLRFEDMKVKHLEIINGVARQDTRTHMDVNGKHVDLETHVVVVNVNGRLKSIKIEIR” the protease stability score was 0.971.
Work on “DEDEESNKLFEDLLSEAIRTGDWRMLRHLADPNVRVDINGKKLVGWEELMRFMHELRIDRHHSRIHDSDSQGDKMHIDVRLEIDGNINGRKHRFRIESELILVKVNGRWLLEESRVG” yielded a protease stability score of 1.67.
Sequence “DEITEHTRSLMEVMLRVWETGDWKRFRELADPNVRMNVNGREVHGRDSVAKEIYKMLSDLGVDHSTTHHVDLIGNKAHHDVRMFFNGRETEIRIDIVLINGKVREVNIEIHTR” has a protease stability score of 2.14.
“DEDEELAKKAVEEFFTAWETGNEERLEELMDPNVRSHINGVDLHGMERTSEYIRRLGHTKVETYLRRVRVFENRVEVDGDIIVDGRKHKFHLDMRKINGRWFIHRVSVK” gave a protease stability score of 2.42.
In the case of “SEDRESAKWFVEMELELFLTGDFEKRLHLADPNAKIRIEINGRKHSTHGMREFLEHLLRLGIDVSHVDHIQVENYNGKLEMNLNLDIRIDGQRRHVEIHIIVDKFDGRWVLRELKVNIR”, the protease stability score is reported as 0.642.
Work on “TKEEDLMELALRIIERVNETGDEQELHDRLDPHTQIEIGDKNEHGWEHIVHVMRHIRIEQIRFRDRRVQGDKVHVFVESEIRVGEKQLHVKVDIYVWKFDGRWIMTRMRVE” yielded a protease stability score of 1.33.
For “TEDEELAKLVSEILLHIMETGDEDKLSKMADPHVRVNINGRERHGWRNMVRVLHETIRNLGIEIKSVHIRDLKIQGDKIRVTMEIDYQQGDKRNEWSSHLIIIKIDGRWHLHAFELN”, the protease stability score was 1.26.
“SEHEREAREHMEIFRRAFRTGDEQFLTELADPNVRVDVNGVELHGRENFLRVMRHIRFKDIRIKRSREINGVLFIDVRERGIVNGQETTFESEIIILKVDGRWIIEELIIL” showed a protease stability score of 1.39.
Work on “REEEEHARRLVEMYFHALLTGDEDLLKSLLDPNVKLQIGDKVHVGREELIRSLRELWDKLGIDHITLEEYRIEIQGNKIRLKLYMHLHVNGRLLQVTTDILVDKVDGRWVIQEIRVHEA” yielded a protease stability score of 1.91.
With “DEEEEEHRIAHELFIKTSQTGDEQESTEMMDPNVRVTIGNKHFVGREEVSKFFKEIRIKRVRFKRIRHINGKAEMEMHMHGEVNGRERELEIHVYIFKINGRWVIEEVRFH” the protease stability score was 1.64.
In the case of “SEAEEFARRVIELWIRSILTGNPDMSEKLADPNYKVHFNGVNIVGMEEFYRHLEEWRIHIDDFRIRDVRVQGDKMINDTEERITIKYGDKEIHLDVRLEIIIRKIDGRWHMHSIILH”, the protease stability score is reported as 2.2.
“SEDEEILREILEETNKALHTGDENHIRHLLDPHVRWHVGDKTIIGRDLLVDILRRMGVKHHEIRLRDMDHVGEKIRLEGELIIRYGDKTETHDVTFVLIKFDGRWHIEEYIHG” gave a protease stability score of 0.866.
For “DEEEHELQEAIEILKHDIETGNWERFVKRADPHARIRFNGRDLHGWERMKEVFEHVSKEFQNQKVEFETEHYFDGRVEVIVNIRIGDKNIHMRIISDKINGQWITREVRFH”, the protease stability score was 1.41.
“DDHDKLMQDLTSMFVRDLITGDEKSMDELLDPDVKVDINGQETHGRDHFLEILNKNLKEWRVKDVKIEHVEWYGNKAHIRMEVIGNWNGKEHSLDFELHLLIVNGQFKEIRIKIR” showed a protease stability score of 1.5.
“TELEDLVKRLWHIWLHAVLTGDEDLLTKLIDPHARLEIHIGDKEFIHIGREEFVRFMREYHRHLRVERVDERSMEVIGNKSHSDVRTVIHIDGRTIDTRMHIDLIVVNGRVKSLEIHVH” gave a protease stability score of 2.26.
In the case of “DEEERALIVLLLLFEESMRTGDPRLIKELMDPHMRLRFENRHYHGRDEFMEWFKQVDHIFIDRVNIRDVRLIGEWVRIDVEILGTHEQGDKQFEFRRRTHLVVRKVDGRWIMHHVEIR”, the protease stability score is reported as 1.64.
For “SEDEEYSRIIVKLWLEKMRTGDEDSLTKLMDPNYRLDINGKIFHGREEALLALREMVNRIDHFRDIKIHHVDIQGDKIRIDGRLEGEINGVHEIHKSSLVLVKYDGVWVIEEQKVL”, the protease stability score was 1.91.
Work on “DEEKRHDEKLVEDFIHNVLTGDWEKLLRNMDPHARIHVDVGNFREERVGREDWIETLARRKNARFHIESYRIYNGQVDMEVRIEQGDKEHKFKLIIKFVDGVVRSISMQVE” yielded a protease stability score of 1.26.
“SDEHDVVRELLEIMEIVWRTGDWREMTKMFDPNTRISYGDKYIVGWEALEVLLKRIDHHTMHEIHFRDVHVQGDKIRLDGEVRFERHVGDYREHVTVDVHIHARKIDGRWINTNIRTH” gave a protease stability score of 0.743.
With “DEDEHNVREFIERIMRILETGDEHDFKRMADPDVRFEIGDKLIHGMETWSEIHTDELKRIPNLKIQLRIHDVHAYNGRAHVHSHFVIEFDGKRHIIETEMFIIKINGQWHLRSIKYK” the protease stability score was 1.46.
“SEEEKKLNHWLELWLRSVVTGDEEHLERLADPHVRNHVGDFESHGREEVLKLMEMLKRTLGAKHIRIEIHHVDVQGDKVRMDTRIIIDAENHHLTLKSRMHTRKIDGRWYLHSLEID” showed a protease stability score of 1.06.
In the case of “DEHTEHSKKLADLIMEWLKTGNEEILRKRMDPNTKIHIEVDGREENTHGWEEFERWLKELGIKHFELKHVHIQGDKSFVDGTLEVNGQRRRIIFIFIVVDGRIQSIRVIVI”, the protease stability score is reported as 2.12.
